From article PMC5902456
Like-named read-outs stand apart in the source and are kept apart here.

Experiments:
[1] = target: sfGFP-MAP7 (full-length human MAP7) (human) (UniProt Q14244); assay: TIRF microscopy of fluorescent proteins on immobilized microtubules; recruitment and motility: MAP7 (or ensconsin), 5 nM, flowed in first onto immobilized microtubules, then the kinesin-1 construct (1 nM K560); BRB80 pH 6.8 with 1 mM ATP, 150 mM K-acetate; fold change of kinesin fluorescence on the microtubule against no MAP
[2] = target: taxol-stabilized microtubules polymerized from porcine brain tubulin (porcine) (UniProt P02550)
[3] = target: taxol-stabilized microtubules of native tubulin, biotin-tubulin and fluorescent-tubulin from porcine brain (~10:1:1) (porcine) (UniProt P02550); assay: TIRF microscopy of fluorescent proteins on immobilized microtubules; recruitment and motility: MAP7 (or ensconsin), 5 nM, flowed in first onto immobilized microtubules, then the kinesin-1 construct (1 nM K560); BRB80 pH 6.8 with 1 mM ATP, 150 mM K-acetate; fold change of kinesin fluorescence on the microtubule against no MAP
[4] = target: sfGFP-Ensconsin, wild type (Drosophila melanogaster) (Drosophila melanogaster); assay: as above
[5] = target: taxol-stabilized microtubules of native tubulin, biotin-tubulin and fluorescent-tubulin from porcine brain (~10:1:1) (porcine) (UniProt P02550); assay: TIRF microscopy of fluorescent proteins on immobilized microtubules; 5 nM KIF1A-mScarlet or 3 nM DDB-TMR on immobilized microtubules, alone or with 5 nM sfGFP-MAP7 or 100 nM mTagBFP-tau; 30 mM Hepes pH 7.4, 150 mM K-acetate, 2 mM Mg-acetate, 1 mM EGTA, 10% glycerol, 1 mM ATP
[6] = target: taxol-stabilized microtubules of native tubulin, biotin-tubulin and fluorescent-tubulin from porcine brain (~10:1:1) (porcine) (UniProt P02550); assay: TIRF microscopy of fluorescent proteins on immobilized microtubules; TIRF-M-based microtubule-binding assay; KD derived from saturation curves
[7] = target: taxol-stabilized microtubules polymerized from porcine brain tubulin (porcine) (UniProt P02550); assay: co-sedimentation; 500 nM sfGFP-MAP7 or sfGFP-tau with increasing microtubules; 50 mM Tris pH 8, 150 mM K-acetate, 2 mM Mg-acetate, 1 mM EGTA, 10% glycerol, DTT, taxol, BSA; 25 °C, 20 min; pelleted at 90,000 g; SDS-PAGE; apparent KD
[8] = target: taxol-stabilized microtubules of native tubulin, biotin-tubulin and fluorescent-tubulin from porcine brain (~10:1:1) (porcine) (UniProt P02550); assay: single-molecule dwell time by TIRF microscopy; 250 pM sfGFP-MAP7 or 10 nM sfGFP-tau on immobilized microtubules; kymograph analysis; cumulative frequencies fit to a one phase exponential decay; 30 mM Hepes pH 7.4, 150 mM K-acetate buffer
[9] = target: taxol-stabilized microtubules polymerized from porcine brain tubulin (porcine) (UniProt P02550); assay: co-sedimentation; 500 nM sfGFP-MAP7 or sfGFP-tau with increasing microtubules; 50 mM Tris pH 8, 150 mM K-acetate, 2 mM Mg-acetate, 1 mM EGTA, 10% glycerol, DTT, taxol, BSA; 25 °C, 20 min; pelleted at 90,000 g; SDS-PAGE; apparent KD; remark: listed apart in the source

Sequence of sfGFP-Ensconsin, wild type (Drosophila melanogaster) (Drosophila melanogaster) (main, as listed by the source): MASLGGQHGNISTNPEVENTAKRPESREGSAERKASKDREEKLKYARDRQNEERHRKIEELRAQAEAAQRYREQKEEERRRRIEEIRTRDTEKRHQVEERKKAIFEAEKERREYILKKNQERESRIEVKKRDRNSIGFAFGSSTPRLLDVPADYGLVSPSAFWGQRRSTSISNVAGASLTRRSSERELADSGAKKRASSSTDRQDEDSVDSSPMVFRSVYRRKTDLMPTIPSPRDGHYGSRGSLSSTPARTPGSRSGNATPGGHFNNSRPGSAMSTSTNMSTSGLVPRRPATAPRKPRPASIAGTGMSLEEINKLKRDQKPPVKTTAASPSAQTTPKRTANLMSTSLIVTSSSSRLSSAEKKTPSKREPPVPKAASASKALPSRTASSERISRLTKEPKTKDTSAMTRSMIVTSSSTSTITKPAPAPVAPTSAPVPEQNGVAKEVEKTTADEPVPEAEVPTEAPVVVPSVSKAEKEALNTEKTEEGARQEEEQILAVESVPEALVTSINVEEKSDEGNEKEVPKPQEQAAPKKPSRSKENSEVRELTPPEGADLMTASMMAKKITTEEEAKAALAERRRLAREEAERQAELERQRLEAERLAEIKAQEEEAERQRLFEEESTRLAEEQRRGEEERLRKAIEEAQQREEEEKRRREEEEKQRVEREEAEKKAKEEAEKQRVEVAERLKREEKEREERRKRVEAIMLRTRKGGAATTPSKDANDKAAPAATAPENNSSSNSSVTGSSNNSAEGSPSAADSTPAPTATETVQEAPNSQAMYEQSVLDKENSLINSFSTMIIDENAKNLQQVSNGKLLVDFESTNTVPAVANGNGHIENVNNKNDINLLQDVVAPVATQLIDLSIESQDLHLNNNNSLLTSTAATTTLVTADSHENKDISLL

“K508-mScarlet (from UniProt P33176 1-508) (domain or fragment)” gave a fold change in fluorescence intensity on the microtubule in the presence of sfGFP-MAP7 [1] of 10.9 fold.

“K523-mScarlet (from UniProt P33176 1-523) (domain or fragment)” gave a fold change in fluorescence intensity on the microtubule in the presence of sfGFP-MAP7 [1] of 152 fold.

“K560-mScarlet (truncated human kinesin-1) (from UniProt P33176 1-560) (domain or fragment)” showed a KmMT of the microtubule-stimulated ATPase of 50 nM K560-mScarlet, with 50 nM sfGFP-MAP7 [2] of 0.27 µM, a KmMT of the microtubule-stimulated ATPase of 50 nM K560-mScarlet, without MAP7 [2] of 1.46 µM and a landing rate (motors μm^−1 min^−1) [3] of 0.09. The landing rate with 5 nM sfGFP-MAP7 (motors μm^−1 min^−1) [3] was 1.34, the fold change in fluorescence intensity on the microtubule in the presence of ensconsin [4] was 147 fold and the fold change in fluorescence intensity on the microtubule in the presence of sfGFP-MAP7 [1] was 165 fold.

With “dynein–dynactin-BicD2 (DDB)-TMR complex (from UniProt Q921C5 1-820)” the fluorescence intensity on the microtubule [5] was 164 A.U and the fluorescence intensity on the microtubule with 5 nM sfGFP-MAP7 [5] was 147 A.U.

“sfGFP-MAP7 (full-length human MAP7) (from UniProt Q14244 1-749) (natural protein)” was tested, and the Kd [6] was 3030 nM, the Kd [7] was 470 nM and the dwell time decay constant τ [8] was 82.3 s. For the same molecule, the Kd [9] was 460 nM.

Work on “sfGFP-MAP7ΔC (aa 1–353) (from UniProt Q14244 1-353) (domain or fragment)” yielded a Kd [6] of 1390 nM.

B1: KIF1A-mScarlet (human KIF1A 1–393) (domain or fragment)
chain: MAGASVKVAVRVRPFNSREMSRDSKCIIQMSGSTTTIVNPKQPKETPKSFSFDYSYWSHTSPEDINYASQKQVYRDIGEEMLQHAFEGYNVCIFAYGQTGAGKSYTMMGKQEKDQQGIIPQLCEDLFSRINDTTNDNMSYSVEVSYMEIYCERVRDLLNPKNKGNLRVREHPLLGPYVEDLSKLAVTSYNDIQDLMDSGNKARTVAATNMNETSSRSHAVFNIIFTQKRHDAETNITTEKVSKISLVDLAGSERADSTGAKGTRLKEGANINKSLTTLGKVISALAEMDSGPNKNKKKKKTDFIPYRDSVLTWLLRENLGGNSRTAMVAALSPADINYDETLSTLRYADRAKQIRCNAVINEDPNNKLIRELKDEVTRLRDLLYAQGLGDITD
B1 was tested, and the fluorescence intensity on the microtubule [5] was 1000 A.U, the fluorescence intensity on the microtubule with 5 nM sfGFP-MAP7 [5] was 332 A.U and the fluorescence intensity on the microtubule with 100 nM mTagBFP-tau [5] was 427 A.U. The landing rate (motors μm^−1 min^−1) [5] was 1.5, the landing rate with mTagBFP-tau (motors μm^−1 min^−1) [5] was 0.24 and the landing rate with sfGFP-MAP7 (motors μm^−1 min^−1) [5] was 0.38.
